In the supplement of paper PMC10724198:
± gives the standard deviation of the averaged measurements.

tested on: Saccharomyces cerevisiae; assay: protein stability index of tFT-peptide fusion (C-terminal peptide) (PSI (0-1 scale)); higher = more stable (slower turnover); conditions: genetic background: das1 deletion; temperature: 37 C
Experimental: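 MPS profiling in S. cerevisiae of the tFT-X12 degron library: putative degron peptides plus stable controls, 12 aa, fused to the C-terminus of a sfGFP-mCherry timer. Cells are FACS-sorted into 8 mCherry/sfGFP bins and deep-sequenced. PSI runs from 0 (unstable) to 1 (stable). Backgrounds are wild type, das1Δ and doa10Δ at 30 °C, and wild type, das1Δ, cdc34-1 and cdc53-1 at 37 °C; 2-3 technical replicates each.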
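Further: PSI is a weighted mean of sequencing reads over stability bins, variants kept only with over 10 reads, mCherry proximal and sfGFP distal, peptide attached via GGGS linker.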

Row | Sequence | protein stability index
1 | LIICRSFLCKVR | 0.369 ± 0.0059
2 | LILIVVVAGSVG | 0.437 ± 0.0066
3 | LIMIRLLYLRLI | 0.365 ± 0.022
4 | LINHSWLLLSVL | 0.521 ± 0.026
5 | LLCSLGFRFSLF | 0.725 ± 0.019
6 | LLFGCLIRIGCS | 0.403 ± 0.021
7 | LLILSVRPFVFV | 0.544 ± 0.0068
8 | LLLALLFWPCPI | 0.559 ± 0.037
9 | LLLIGISFLIFY | 0.385 ± 0.008
10 | LLLTAIRVLRMH | 0.7177 ± 0.0014
11 | LLLVCYSTFIVA | 0.3813 ± 0.0031
12 | LLLVPLLAFSAS | 0.6084 ± 0.0031
13 | LLMFWLSIWFWG | 0.374 ± 0.008
14 | LLPYSLSLALRA | 0.468 ± 0.0073
15 | LLSFSQLGYFVL | 0.738 ± 0.023
16 | LLSGHFRLLLAF | 0.23 ± 0.013
17 | LLVCLGYFLFLG | 0.484 ± 0.055
18 | LNVEEGGGLENV | 0.719 ± 0.024
19 | LPHPLPFCFSLY | 0.7781 ± 0.0021
20 | LPLLLFYLPIIW | 0.521 ± 0.0097

Row | Sequence | protein stability index
21 | LPPFLSSLPSSP | 0.7635 ± 0.0039
22 | LPPSPPAPLSRL | 0.8616 ± 0.0061
23 | LQIKSFTSQRLA | 0.72398 ± 0.0003
24 | LRFMLLSFLVIL | 0.429 ± 0.019
25 | LRFVCALGYCVW | 0.6011 ± 0.0042
26 | LRNVPCLVFFWV | 0.632 ± 0.011
27 | LRSVLGWGLFLA | 0.621 ± 0.0097
28 | LSCFCLFCLSFC | 0.663 ± 0.027
29 | LSFLALLLFFRI | 0.44 ± 0.015
30 | LSGIILGWSVSG | 0.735 ± 0.047
31 | LSLVYFAALFSF | 0.53775 ± 0.00036
32 | LSTPPLLPTPPS | 0.7182 ± 0.0062
33 | LSVMKLFVMVGP | 0.5023 ± 0.0045
34 | LSVSLFPIRYVG | 0.7638 ± 0.0037
35 | LVVIYPLLSSPV | 0.578 ± 0.0074
36 | LWFFVGFAVYGG | 0.513 ± 0.019
37 | LWFRGGYLFFVV | 0.499 ± 0.01
38 | LWVTRVYCLLVC | 0.233 ± 0.019
39 | LYIQWVSRWSVQ | 0.669 ± 0.021
40 | LYLCLVSPVVVL | 0.296 ± 0.0064

Row | Sequence | protein stability index
41 | LYLGCVLFVLFR | 0.368 ± 0.0098
42 | LYSVLWFCFPLV | 0.577 ± 0.0076
43 | LYVLNILSFVCV | 0.251 ± 0.023
44 | MALAVRVVKCGA | 0.4361 ± 0.0027
45 | MCRMYELYVTSS | 0.588 ± 0.026
46 | MIILGFILYFFW | 0.505 ± 0.018
47 | NAPSAIQKNKKC | 0.71782 ± 0.00039
48 | NDSSWEVSLMVG | 0.748 ± 0.0098
49 | NECLSSKWLRIC | 0.726 ± 0.025
50 | NFKELMEKSKYR | 0.763 ± 0.028
51 | NLTAIIYTLVVD | 0.444 ± 0.018
52 | NQIIRLIVGLLC | 0.5867 ± 0.0055
53 | PCLLRYLVHPFP | 0.7439 ± 0.0017
54 | PCPAPRPPSPSA | 0.715 ± 0.0076
55 | PDCRPPLVRCLL | 0.9164 ± 0.0047
56 | PFALTPPPSPRS | 0.583 ± 0.0083
57 | PFFCFLLFCFSL | 0.5465 ± 0.00098
58 | PFFLLAGITVAC | 0.203 ± 0.0027
59 | PFLCLPFLLVSR | 0.49 ± 0.0032
60 | PFPTPPPIPRSP | 0.729 ± 0.0085

same assay, conditions: genetic background: doa10 deletion; temperature: 30 C

Row | Sequence | protein stability index
61 | LIICRSFLCKVR | 0.16 ± 0.0049
62 | LILIVVVAGSVG | 0.206 ± 0.014
63 | LIMIRLLYLRLI | 0.105 ± 0.017
64 | LINHSWLLLSVL | 0.14246 ± 3.7e-05
65 | LLCSLGFRFSLF | 0.289 ± 0.0056
66 | LLFGCLIRIGCS | 0.225 ± 0.0046
67 | LLILSVRPFVFV | 0.3727 ± 0.0033
68 | LLLALLFWPCPI | 0.396 ± 0.024
69 | LLLIGISFLIFY | 0.199 ± 0.025
70 | LLLTAIRVLRMH | 0.118 ± 0.0018
71 | LLLVCYSTFIVA | 0.251 ± 0.011
72 | LLLVPLLAFSAS | 0.462 ± 0.027
73 | LLMFWLSIWFWG | 0.268 ± 0.023
74 | LLPYSLSLALRA | 0.2604 ± 0.0023
75 | LLSFSQLGYFVL | 0.13 ± 0.0051
76 | LLSGHFRLLLAF | 0.0793 ± 0.0067
77 | LLVCLGYFLFLG | 0.338 ± 0.0061
78 | LNVEEGGGLENV | 0.661 ± 0.044
79 | LPHPLPFCFSLY | 0.4271 ± 0.0037
80 | LPLLLFYLPIIW | 0.414 ± 0.0077

Row | Sequence | protein stability index
81 | LPPFLSSLPSSP | 0.668 ± 0.031
82 | LPPSPPAPLSRL | 0.804 ± 0.022
83 | LQIKSFTSQRLA | 0.0758 ± 0.016
84 | LRFMLLSFLVIL | 0.2402 ± 0.0023
85 | LRFVCALGYCVW | 0.443 ± 0.015
86 | LRNVPCLVFFWV | 0.334 ± 0.017
87 | LRSVLGWGLFLA | 0.236 ± 0.0088
88 | LSCFCLFCLSFC | 0.517 ± 0.039
89 | LSFLALLLFFRI | 0.567 ± 0.017
90 | LSGIILGWSVSG | 0.6308 ± 0.005
91 | LSLVYFAALFSF | 0.356 ± 0.025
92 | LSTPPLLPTPPS | 0.672 ± 0.029
93 | LSVMKLFVMVGP | 0.358 ± 0.0093
94 | LSVSLFPIRYVG | 0.196 ± 0.0098
95 | LVVIYPLLSSPV | 0.402 ± 0.014
96 | LWFFVGFAVYGG | 0.306 ± 0.012
97 | LWFRGGYLFFVV | 0.2 ± 0.013
98 | LWVTRVYCLLVC | 0.0555 ± 0.02
99 | LYIQWVSRWSVQ | 0.388 ± 0.011
100 | LYLCLVSPVVVL | 0.184 ± 0.011

Row | Sequence | protein stability index
101 | LYLGCVLFVLFR | 0.273 ± 0.0047
102 | LYSVLWFCFPLV | 0.442 ± 0.035
103 | LYVLNILSFVCV | 0.115 ± 0.0099
104 | MALAVRVVKCGA | 0.221 ± 0.006
105 | MCRMYELYVTSS | 0.349 ± 0.025
106 | MIILGFILYFFW | 0.352 ± 0.04
107 | NAPSAIQKNKKC | 0.211 ± 0.016
108 | NDSSWEVSLMVG | 0.614 ± 0.041
109 | NECLSSKWLRIC | 0.0791 ± 0.032
110 | NFKELMEKSKYR | 0.677 ± 0.061
111 | NLTAIIYTLVVD | 0.197 ± 0.016
112 | NQIIRLIVGLLC | 0.193 ± 0.014
113 | PCLLRYLVHPFP | 0.65 ± 0.013
114 | PCPAPRPPSPSA | 0.668 ± 0.031
115 | PDCRPPLVRCLL | 0.8334 ± 0.0043
116 | PFALTPPPSPRS | 0.356 ± 0.024
117 | PFFCFLLFCFSL | 0.459 ± 0.0093
118 | PFFLLAGITVAC | 0.139 ± 0.0038
119 | PFLCLPFLLVSR | 0.467 ± 0.017
120 | PFPTPPPIPRSP | 0.706 ± 0.035
